Consider six molecules from paper PMC11446282.

The assay deals with B55α interactors. The experiment in a line: MS analysis of B55α WT, V228A, I284A, S287A and D340A immunopurifications. The class given is binding, human. The note with it: log2 ratio of interactor abundance, 4 replicates each, normalised to bait B55α; for log2_ratio_D340_WT: B55α D340A vs WT immunopurification; for log2_ratio I284_WT: B55α I284A vs WT immunopurification; for log2_ratio S287_WT: B55α S287A vs WT immunopurification; for log2_ratio V228_WT: B55α V228A vs WT immunopurification. Here is the method: Standard cloning techniques were used throughout. Point mutations were introduced by whole plasmid polymerase chain reaction (PCR). All constructs were fully sequenced. Synthetic DNA was purchased from GeneArt, Life Technologies and cloned into pcDNA5/FRT/TO (Invitrogen) expression vector containing YFP, resulting in the indicated YFP fusion proteins. These constructs were transiently transfected into HeLa cells 24 hours before harvesting cells. Cells were lysed in lysis buffer [50 mM tris-HCl (pH 7.5), 50 mM NaCl, 1 mM EDTA, 1 mM […], and 0.1% NP-40]. Complexes were immunoprecipitated at 4°C in lysis buffer with green fluorescent protein (GFP)–Trap (ChromoTek) and washed in lysis buffer. Precipitated protein complexes were washed three times in lysis buffer, eluted in 2× SDS sample buffer, and subjected to Western blotting or MS as indicated.
Pull-downs were analyzed on a Q-Exactive Plus quadrupole or Fusion Orbitrap Lumos mass spectrometer (Thermo Fisher Scientific) equipped with Easy-nLC 1000 or […] (Thermo Fisher Scientific) and nanospray source (Thermo Fisher Scientific).
Static modifications included carbamidomethylcysteine, and variable modifications included oxidized methionine and STY phosphorylation. Searches were filtered using orthogonal measures including mass measurement accuracy (±3 parts per million), Xcorr for charges from +2 to +4, and dCn targeting a <1% false discovery rate at the peptide level. Quantification of LC-MS/MS spectra was performed using MassChroQ ([57]) and the iBAQ method ([58]). All data were analyzed using R 4.3.0. Missing values were imputed from a normal distribution. […] In each dataset, the abundance of the protein of interest was normalized to be equal across all samples. Statistical analyses were done using a two-tailed Student’s t test.

B1: AMOL2_HUMAN (protein, UniProt Q9Y2J4 1-779, looked up)
Angiomotin-like protein 2: MRTLEDSSGTVLHRLIQEQLRYGNLTETRTLLAIQQQALRGGAGTGGTGSPQASLEILAPEDSQVLQQATRQEPQGQEHQGGENHLAENTLYRLCPQPSKGEELPTYEEAKAHSQYYAAQQAGTRPHAGDRDPRGAPGGSRRQDEALRELRHGHVRSLSERLLQLSLERNGARAPSHMSSSHSFPQLARNQQGPPLRGPPAEGPESRGPPPQYPHVVLAHETTTAVTDPRYRARGSPHFQHAEVRILQAQVPPVFLQQQQQYQYLQQSQEHPPPPHPAALGHGPLSSLSPPAVEGPVSAQASSATSGSAHLAQMEAVLRENARLQRDNERLQRELESSAEKAGRIEKLESEIQRLSEAHESLTRASSKREALEKTMRNKMDSEMRRLQDFNRDLRERLESANRRLASKTQEAQAGSQDMVAKLLAQSYEQQQEQEKLEREMALLRGAIEDQRRRAELLEQALGNAQGRAARAEEELRKKQAYVEKVERLQQALGQLQAACEKREQLELRLRTRLEQELKALRAQQRQAGAPGGSSGSGGSPELSALRLSEQLREKEEQILALEADMTKWEQKYLEERAMRQFAMDAAATAAAQRDTTLIRHSPQPSPSSSFNEGLLTGGHRHQEMESRLKVLHAQILEKDAVIKVLQQRSRRDPGKAIQGSLRPAKSVPSVFAAAAAGTQGWQGLSSSERQTADAPARLTTDRAPTEEPVVTAPPAAHAKHGSRDGSTQTEGPPDSTSTCLPPEPDSLLGCSSSQRAASLDSVATSRVQDLSDMVEILI
On to B1, for which the log2_ratio_D340_WT turned out to be 2.17, the “log2_ratio I284_WT” value amounted to 3.49 and the “log2_ratio S287_WT” value was determined as 2.56.

B2: SIK2_HUMAN (protein, UniProt Q9H0K1 1-926, looked up)
Serine/threonine-protein …: MVMADGPRHLQRGPVRVGFYDIEGTLGKGNFAVVKLGRHRITKTEVAIKIIDKSQLDAVNLEKIYREVQIMKMLDHPHIIKLYQVMETKSMLYLVTEYAKNGEIFDYLANHGRLNESEARRKFWQILSAVDYCHGRKIVHRDLKAENLLLDNNMNIKIADFGFGNFFKSGELLATWCGSPPYAAPEVFEGQQYEGPQLDIWSMGVVLYVLVCGALPFDGPTLPILRQRVLEGRFRIPYFMSEDCEHLIRRMLVLDPSKRLTIAQIKEHKWMLIEVPVQRPVLYPQEQENEPSIGEFNEQVLRLMHSLGIDQQKTIESLQNKSYNHFAAIYFLLVERLKSHRSSFPVEQRLDGRQRRPSTIAEQTVAKAQTVGLPVTMHSPNMRLLRSALLPQASNVEAFSFPASGCQAEAAFMEEECVDTPKVNGCLLDPVPPVLVRKGCQSLPSNMMETSIDEGLETEGEAEEDPAHAFEAFQSTRSGQRRHTLSEVTNQLVVMPGAGKIFSMNDSPSLDSVDSEYDMGSVQRDLNFLEDNPSLKDIMLANQPSPRMTSPFISLRPTNPAMQALSSQKREVHNRSPVSFREGRRASDTSLTQGIVAFRQHLQNLARTKGILELNKVQLLYEQIGPEADPNLAPAAPQLQDLASSCPQEEVSQQQESVSTLPASVHPQLSPRQSLETQYLQHRLQKPSLLSKAQNTCQLYCKEPPRSLEQQLQEHRLQQKRLFLQKQSQLQAYFNQMQIAESSYPQPSQQLPLPRQETPPPSQQAPPFSLTQPLSPVLEPSSEQMQYSPFLSQYQEMQLQPLPSTSGPRAAPPLPTQLQQQQPPPPPPPPPPRQPGAAPAPLQFSYQTCELPSAASPAPDYPTPCQYPVDGAQQSDLTGPDCPRSPGLQEAPSSYDPLALSELPGLFDCEMLDAVDPQHNGYVLVN
B2: the log2_ratio_D340_WT is reported as 2.13, the “log2_ratio I284_WT” value is on record as -0.65, the “log2_ratio S287_WT” value is -1.90 and the “log2_ratio V228_WT” value is -3.24.

B3: PPME1_HUMAN (protein, UniProt Q9Y570 2-386, looked up)
Protein phosphatase …: SALEKSMHLGRLPSRPPLPGSGGSQSGAKMRMGPGRKRDFSPVPWSQYFESMEDVEVENETGKDTFRVYKSGSEGPVLLLLHGGGHSALSWAVFTAAIISRVQCRIVALDLRSHGETKVKNPEDLSAETMAKDVGNVVEAMYGDLPPPIMLIGHSMGGAIAVHTASSNLVPSLLGLCMIDVVEGTAMDALNSMQNFLRGRPKTFKSLENAIEWSVKSGQIRNLESARVSMVGQVKQCEGITSPEGSKSIVEGIIEEEEEDEEGSESISKRKKEDDMETKKDHPYTWRIELAKTEKYWDGWFRGLSNLFLSCPIPKLLLLAGVDRLDKDLTIGQMQGKFQMQVLPQCGHAVHEDAPDKVAEAVATFLIRHRFAEPIGGFQCVFPGC
For B3, the log2_ratio_D340_WT was -3.73, the “log2_ratio I284_WT” value is -7.04, the “log2_ratio S287_WT” value is reported as -10.17 and the “log2_ratio V228_WT” value is -9.33.

B4: TBCD4_HUMAN (protein, UniProt O60343 1-1298, looked up)
TBC1 domain family member 4: MEPPSCIQDEPFPHPLEPEPGVSAQPGPGKPSDKRFRLWYVGGSCLDHRTTLPMLPWLMAEIRRRSQKPEAGGCGAPAAREVILVLSAPFLRCVPAPGAGASGGTSPSATQPNPAVFIFEHKAQHISRFIHNSHDLTYFAYLIKAQPDDPESQMACHVFRATDPSQVPDVISSIRQLSKAAMKEDAKPSKDNEDAFYNSQKFEVLYCGKVTVTHKKAPSSLIDDCMEKFSLHEQQRLKIQGEQRGPDPGEDLADLEVVVPGSPGDCLPEEADGTDTHLGLPAGASQPALTSSRVCFPERILEDSGFDEQQEFRSRCSSVTGVQRRVHEGSQKSQPRRRHASAPSHVQPSDSEKNRTMLFQVGRFEINLISPDTKSVVLEKNFKDISSCSQGIKHVDHFGFICRESPEPGLSQYICYVFQCASESLVDEVMLTLKQAFSTAAALQSAKTQIKLCEACPMHSLHKLCERIEGLYPPRAKLVIQRHLSSLTDNEQADIFERVQKMKPVSDQEENELVILHLRQLCEAKQKTHVHIGEGPSTISNSTIPENATSSGRFKLDILKNKAKRSLTSSLENIFSRGANRMRGRLGSVDSFERSNSLASEKDYSPGDSPPGTPPASPPSSAWQTFPEEDSDSPQFRRRAHTFSHPPSSTKRKLNLQDGRAQGVRSPLLRQSSSEQCSNLSSVRRMYKESNSSSSLPSLHTSFSAPSFTAPSFLKSFYQNSGRLSPQYENEIRQDTASESSDGEGRKRTSSTCSNESLSVGGTSVTPRRISWRQRIFLRVASPMNKSPSAMQQQDGLDRNELLPLSPLSPTMEEEPLVVFLSGEDDPEKIEERKKSKELRSLWRKAIHQQILLLRMEKENQKLEASRDELQSRKVKLDYEEVGACQKEVLITWDKKLLNCRAKIRCDMEDIHTLLKEGVPKSRRGEIWQFLALQYRLRHRLPNKQQPPDISYKELLKQLTAQQHAILVDLGRTFPTHPYFSVQLGPGQLSLFNLLKAYSLLDKEVGYCQGISFVAGVLLLHMSEEQAFEMLKFLMYDLGFRKQYRPDMMSLQIQMYQLSRLLHDYHRDLYNHLEENEISPSLYAAPWFLTLFASQFSLGFVARVFDIIFLQGTEVIFKVALSLLSSQETLIMECESFENIVEFLKNTLPDMNTSEMEKIITQVFEMDISKQLHAYEVEYHVLQDELQESSYSCEDSETLEKLERANSQLKRQNMDLLEKLQVAHTKIQALESNLENLLTRETKMKSLIRTLEQEKMAYQKTVEQLRKLLPADALVNCDLLLRDLNCNPNNKAKIGNKP
Take B4: the log2_ratio_D340_WT is -3.17, the “log2_ratio I284_WT” value was -2.61, the “log2_ratio S287_WT” value is listed as -1.57 and the “log2_ratio V228_WT” value was -1.50.

B5: ACOT8_HUMAN (protein, UniProt O14734 1-319, looked up)
Acyl-coenzyme A thioesterase 8: MSSPQAPEDGQGCGDRGDPPGDLRSVLVTTVLNLEPLDEDLFRGRHYWVPAKRLFGGQIVGQALVAAAKSVSEDVHVHSLHCYFVRAGDPKLPVLYQVERTRTGSSFSVRSVKAVQHGKPIFICQASFQQAQPSPMQHQFSMPTVPPPEELLDCETLIDQYLRDPNLQKRYPLALNRIAAQEVPIEIKPVNPSPLSQLQRMEPKQMFWVRARGYIGEGDMKMHCCVAAYISDYAFLGTALLPHQWQHKVHFMVSLDHSMWFHAPFRADHWMLYECESPWAGGSRGLVHGRLWRQDGVLAVTCAQEGVIRVKPQVSESKL
On to B5, for which the log2_ratio_D340_WT is -0.23 and the “log2_ratio S287_WT” value turned out to be 0.94.

B6: RBM7_HUMAN (protein, UniProt Q9Y580 2-266, looked up)
RNA-binding protein 7: GAAAAEADRTLFVGNLETKVTEELLFELFHQAGPVIKVKIPKDKDGKPKQFAFVNFKHEVSVPYAMNLLNGIKLYGRPIKIQFRSGSSHAPQDVSLSYPQHHVGNSSPTSTSPSRYERTMDNMTSSAQIIQRSFSSPENFQRQAVMNSALRQMSYGGKFGSSPLDQSGFSPSVQSHSHSFNQSSSSQWRQGTPSSQRKVRMNSYPYLADRHYSREQRYTDHGSDHHYRGKRDDFFYEDRNHDDWSHDYDNRRDSSRDGKWRSSRH
Regarding B6, the log2_ratio_D340_WT is -4.64, the “log2_ratio I284_WT” value was -3.46, the “log2_ratio S287_WT” value was found to be 0.85 and the “log2_ratio V228_WT” value is -3.26.
